These results are taken from patent publication US7067277 (H LUNDBECK A S, dated 2006).

Substitutions are numbered along the chain they refer to.

To fix the notation:
B1: Human Gαq/z5 (Ala→Ser substitution at position 171) (other)
chain: MTLESIMACCLSEEAKEARRINDEIERQLRRDKRDARRELKLLLLGTGESGKSTFIKQMRIIHGSGYSDEDKRGFTKLVYQNIFTAMQAMIRAMDTLKIPYKYEHNKAHAQLVREVDVEKVSAFENPYVDAIKSLWNDPGIQECYDRRREYQLSDSTKYYLNDLDRVADPSYLPTQQDVLRVRVPTTGIIEYPFDLQSVIFRMVDVGGQRSERRKWIHCFENVTSIMFLVALSEYDQVLVESDNENRMEESKALFRTIITYPWFQNSSVILFLNKKDLLEEKIMYSHLVDYFPEYDGPQRDAQAAREFILKMFVDLNPDSDKIIYSHFTCATDTENIRFVFAAVKDTILQLNLKYIGLC
B2: C. elegans Gαq/z5 (other)
chain: MACCLSEEAREQKRINQEIEKQLQRDKRNARRELKLLLLGTGESGKSTFIKQMRIIHGQGYSEEDKRAHIRLVYQNVFMAIQSMIRAMDTLDIKFGNESEELQEKAAVVREVDFESVTSFEEPYVSYIKELWEDSGIQECYDRRREYQLTDSAKYYLSDLRRLAVPDYLPTEQDILRVRVPTTGIIEYPFDLEQIIFRMVDVGGQRSERRKWIHCFENVTSIMFLVALSEYDQVLVECDNENRMEESKALFRTIITYPWFTNSSVILFLNKKDLLEEKILYSHLADYFPEYDGPPRDPIAAREFILKMFVDLNPDADKIIYSHFTCATDTENIRFVFAAVKDTILQHNLKYIGLC
B3: C. elegans Gαq/z9 (other)
chain: B2 chain with H347N

The target of one assay is human dopamine D3 receptor (human, UniProt P35462 1-400). The experiment in a line: cell-based or functional assay.
human dopamine D3 receptor, sequence (P35462 whole entry): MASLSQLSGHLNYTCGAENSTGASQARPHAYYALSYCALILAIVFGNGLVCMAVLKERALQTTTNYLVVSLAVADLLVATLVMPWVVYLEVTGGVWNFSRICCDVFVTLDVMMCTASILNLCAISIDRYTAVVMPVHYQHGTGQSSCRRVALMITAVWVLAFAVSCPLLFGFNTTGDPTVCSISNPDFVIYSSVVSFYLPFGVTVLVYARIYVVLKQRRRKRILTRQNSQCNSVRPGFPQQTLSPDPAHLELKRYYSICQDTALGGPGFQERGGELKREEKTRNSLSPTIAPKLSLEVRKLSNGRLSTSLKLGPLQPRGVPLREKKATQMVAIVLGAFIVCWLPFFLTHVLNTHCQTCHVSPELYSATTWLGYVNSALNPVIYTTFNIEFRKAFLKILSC
B1: the “max Ca2+ signal, COS-7, FLIPR; agonist DA” value (“max Ca2+ signal … agonist DA” below) was determined as 0 fluorescence units.

B2: the “max Ca2+ signal … agonist DA” value worked out at 0 fluorescence units.

Regarding B3, the “max Ca2+ signal … agonist DA” value is 121 fluorescence units.

For a further assay, the target named is human GLP-1 receptor (human, UniProt P43220 24-463). The assay is described as follows: cell-based or functional assay.
Turning to B1, the “max Ca2+ signal, COS-7, FLIPR; agonist GLP-1” value worked out at 287 fluorescence units.

Take B2: the “max Ca2+ signal, COS-7, FLIPR; agonist GLP-1” value was 131 fluorescence units.

B3: the “max Ca2+ signal, COS-7, FLIPR; agonist GLP-1” value is 135 fluorescence units.

The target in the next assay is human 5HT1E receptor (human, UniProt P28566 1-365). The experiment in a line: cell-based or functional assay.
human 5HT1E receptor, sequence (P28566 whole entry): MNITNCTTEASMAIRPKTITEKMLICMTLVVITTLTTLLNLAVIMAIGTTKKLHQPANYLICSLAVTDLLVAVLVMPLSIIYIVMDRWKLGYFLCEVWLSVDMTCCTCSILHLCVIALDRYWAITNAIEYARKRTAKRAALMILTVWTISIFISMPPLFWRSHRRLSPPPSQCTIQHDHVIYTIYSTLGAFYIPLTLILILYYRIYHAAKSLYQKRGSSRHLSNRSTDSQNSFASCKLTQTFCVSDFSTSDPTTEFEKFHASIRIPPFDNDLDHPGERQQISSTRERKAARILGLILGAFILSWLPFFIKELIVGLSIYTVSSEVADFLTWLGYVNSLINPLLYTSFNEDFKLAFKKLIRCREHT
B1: the “max Ca2+ signal, COS-7, FLIPR; agonist 5HT” value (“max Ca2+ signal … agonist 5HT” below) is 202 fluorescence units.

Regarding B2, the “max Ca2+ signal … agonist 5HT” value was found to be 229 fluorescence units.

In the case of B3, the “max Ca2+ signal … agonist 5HT” value was found to be 238 fluorescence units.

In a further assay the target is human dopamine D5 receptor (human, UniProt P21918 1-477). The experiment in a line: cell-based or functional assay.
human dopamine D5 receptor, sequence (P21918 whole entry): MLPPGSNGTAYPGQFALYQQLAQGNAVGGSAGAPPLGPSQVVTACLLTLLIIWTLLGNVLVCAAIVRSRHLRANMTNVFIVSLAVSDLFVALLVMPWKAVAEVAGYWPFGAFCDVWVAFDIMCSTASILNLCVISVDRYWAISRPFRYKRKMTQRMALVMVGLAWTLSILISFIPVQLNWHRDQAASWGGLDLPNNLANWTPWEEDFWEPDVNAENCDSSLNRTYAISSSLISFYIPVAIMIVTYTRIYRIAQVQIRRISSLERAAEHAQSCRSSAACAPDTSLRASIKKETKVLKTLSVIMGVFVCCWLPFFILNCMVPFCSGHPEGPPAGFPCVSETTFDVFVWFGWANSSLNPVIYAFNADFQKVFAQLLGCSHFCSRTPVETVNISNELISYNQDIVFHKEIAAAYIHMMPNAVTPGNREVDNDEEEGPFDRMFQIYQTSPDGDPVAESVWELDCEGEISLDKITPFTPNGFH
Consider B1, for which the “max Ca2+ signal … agonist DA” value worked out at 782 fluorescence units.

Take B2: the “max Ca2+ signal … agonist DA” value amounted to 657 fluorescence units.

B3: the “max Ca2+ signal … agonist DA” value amounted to 797 fluorescence units.

A further assay addresses T1, human GALR3 receptor (human, UniProt O60755 1-368).
T1 sequence (looked up): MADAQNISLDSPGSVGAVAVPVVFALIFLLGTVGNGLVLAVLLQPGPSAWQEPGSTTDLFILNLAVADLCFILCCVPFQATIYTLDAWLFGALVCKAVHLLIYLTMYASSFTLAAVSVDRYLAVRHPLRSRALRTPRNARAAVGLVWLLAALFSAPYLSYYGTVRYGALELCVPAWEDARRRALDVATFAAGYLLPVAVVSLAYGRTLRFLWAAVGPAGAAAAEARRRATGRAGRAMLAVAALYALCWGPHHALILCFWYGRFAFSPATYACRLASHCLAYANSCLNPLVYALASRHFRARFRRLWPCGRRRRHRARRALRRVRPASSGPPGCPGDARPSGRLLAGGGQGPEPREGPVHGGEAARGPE
The assay is described as follows: cell-based or functional assay.
As to B1, the “max Ca2+ signal, COS-7, FLIPR; agonist GAL” value (“max Ca2+ signal … agonist GAL” for short) is 804 fluorescence units.

As to B2, the “max Ca2+ signal … agonist GAL” value came to 1520 fluorescence units.

B3: the “max Ca2+ signal … agonist GAL” value was determined as 2050 fluorescence units.

The target in a further assay is T2, human 5HT1A receptor (human, UniProt P08908 1-422).
T2 sequence (looked up): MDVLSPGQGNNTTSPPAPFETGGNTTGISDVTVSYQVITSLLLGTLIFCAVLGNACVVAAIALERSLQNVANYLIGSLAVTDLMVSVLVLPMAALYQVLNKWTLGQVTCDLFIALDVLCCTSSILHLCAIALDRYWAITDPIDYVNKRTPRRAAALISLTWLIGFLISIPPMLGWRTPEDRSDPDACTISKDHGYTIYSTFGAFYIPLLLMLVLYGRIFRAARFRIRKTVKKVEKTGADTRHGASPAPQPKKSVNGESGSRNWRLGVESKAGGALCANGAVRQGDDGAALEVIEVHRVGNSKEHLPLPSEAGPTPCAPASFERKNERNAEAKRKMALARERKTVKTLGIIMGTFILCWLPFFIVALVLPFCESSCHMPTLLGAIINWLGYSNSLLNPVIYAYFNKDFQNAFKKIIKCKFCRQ
The assay is described as follows: cell-based or functional assay.
Take B1: the “max Ca2+ signal … agonist 5HT” value was 478 fluorescence units.

Turning to B2, the “max Ca2+ signal … agonist 5HT” value was determined as 2000 fluorescence units.

As to B3, the “max Ca2+ signal … agonist 5HT” value was found to be 3140 fluorescence units.

Another assay addresses T3, human α2C adrenergic receptor (human, UniProt P18825 1-462).
T3 sequence (looked up): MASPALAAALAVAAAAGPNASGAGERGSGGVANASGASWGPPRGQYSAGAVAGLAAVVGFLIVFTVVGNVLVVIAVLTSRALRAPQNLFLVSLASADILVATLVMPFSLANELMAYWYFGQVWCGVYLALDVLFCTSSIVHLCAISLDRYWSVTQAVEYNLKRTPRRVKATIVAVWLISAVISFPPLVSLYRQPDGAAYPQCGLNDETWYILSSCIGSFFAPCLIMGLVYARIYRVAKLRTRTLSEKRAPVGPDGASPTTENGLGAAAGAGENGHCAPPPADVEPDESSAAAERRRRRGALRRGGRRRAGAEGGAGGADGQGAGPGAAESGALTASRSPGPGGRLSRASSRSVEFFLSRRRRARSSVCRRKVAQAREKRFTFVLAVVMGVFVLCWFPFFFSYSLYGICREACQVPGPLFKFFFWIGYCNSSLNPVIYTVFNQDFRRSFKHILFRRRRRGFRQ
The experiment in a line: cell-based or functional assay.
On to B1, for which the “max Ca2+ signal, COS-7, FLIPR; agonist NE” value (“max Ca2+ signal … agonist NE” below) worked out at 6110 fluorescence units.

For B2, the “max Ca2+ signal … agonist NE” value worked out at 4140 fluorescence units.

For B3, the “max Ca2+ signal … agonist NE” value amounted to 3870 fluorescence units.

The target in another assay is T4, human Y5 receptor (human, UniProt Q15761 1-445).
T4 sequence (looked up): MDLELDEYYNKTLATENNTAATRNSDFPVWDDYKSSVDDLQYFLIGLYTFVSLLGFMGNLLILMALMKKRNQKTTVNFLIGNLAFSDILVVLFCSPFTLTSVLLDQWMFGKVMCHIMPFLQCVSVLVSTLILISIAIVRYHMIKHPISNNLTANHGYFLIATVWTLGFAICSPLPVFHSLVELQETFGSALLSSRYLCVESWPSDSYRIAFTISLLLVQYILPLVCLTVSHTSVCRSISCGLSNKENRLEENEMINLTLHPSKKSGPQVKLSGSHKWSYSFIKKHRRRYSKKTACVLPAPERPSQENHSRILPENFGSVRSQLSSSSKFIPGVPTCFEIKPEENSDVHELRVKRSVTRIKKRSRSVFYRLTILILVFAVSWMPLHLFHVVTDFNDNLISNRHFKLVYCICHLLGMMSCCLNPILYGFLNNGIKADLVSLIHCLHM
The experiment in a line: cell-based or functional assay.
With B1, the “max Ca2+ signal, COS-7, FLIPR; agonist NPY” value (“max Ca2+ signal … agonist NPY” below) amounted to 6410 fluorescence units.

As for B2, the “max Ca2+ signal … agonist NPY” value is 5310 fluorescence units.

Regarding B3, the “max Ca2+ signal … agonist NPY” value came out at 6680 fluorescence units.

For the next assay, the target named is human NPFF2 receptor (human, UniProt Q9Y5X5 1-522). The experiment in a line: cell-based or functional assay.
human NPFF2 receptor, sequence (Q9Y5X5 whole entry): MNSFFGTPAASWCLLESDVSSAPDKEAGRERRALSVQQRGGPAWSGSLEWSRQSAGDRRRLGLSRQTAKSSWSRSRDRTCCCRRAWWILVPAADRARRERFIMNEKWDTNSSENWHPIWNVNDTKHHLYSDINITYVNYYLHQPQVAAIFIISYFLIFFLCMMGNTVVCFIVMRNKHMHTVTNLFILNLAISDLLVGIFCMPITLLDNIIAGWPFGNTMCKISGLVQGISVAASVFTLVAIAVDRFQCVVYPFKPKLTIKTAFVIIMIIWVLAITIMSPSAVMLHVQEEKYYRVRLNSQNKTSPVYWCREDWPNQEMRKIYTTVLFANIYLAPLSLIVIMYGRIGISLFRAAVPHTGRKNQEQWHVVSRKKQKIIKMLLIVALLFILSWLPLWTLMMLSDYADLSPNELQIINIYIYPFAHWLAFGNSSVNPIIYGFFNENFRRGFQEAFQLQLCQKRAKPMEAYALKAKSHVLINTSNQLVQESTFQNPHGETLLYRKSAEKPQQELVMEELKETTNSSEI
Take B1: the “max Ca2+ signal, COS-7, FLIPR; agonist NPFF” value (“max Ca2+ signal … agonist NPFF” for short) came out at 20000 fluorescence units.

B2: the “max Ca2+ signal … agonist NPFF” value stood at 7570 fluorescence units.

B3: the “max Ca2+ signal … agonist NPFF” value turned out to be 4580 fluorescence units.

A further assay concerns the target T5, human α2A adrenergic receptor (human, UniProt P08913 1-465).
T5 sequence (looked up): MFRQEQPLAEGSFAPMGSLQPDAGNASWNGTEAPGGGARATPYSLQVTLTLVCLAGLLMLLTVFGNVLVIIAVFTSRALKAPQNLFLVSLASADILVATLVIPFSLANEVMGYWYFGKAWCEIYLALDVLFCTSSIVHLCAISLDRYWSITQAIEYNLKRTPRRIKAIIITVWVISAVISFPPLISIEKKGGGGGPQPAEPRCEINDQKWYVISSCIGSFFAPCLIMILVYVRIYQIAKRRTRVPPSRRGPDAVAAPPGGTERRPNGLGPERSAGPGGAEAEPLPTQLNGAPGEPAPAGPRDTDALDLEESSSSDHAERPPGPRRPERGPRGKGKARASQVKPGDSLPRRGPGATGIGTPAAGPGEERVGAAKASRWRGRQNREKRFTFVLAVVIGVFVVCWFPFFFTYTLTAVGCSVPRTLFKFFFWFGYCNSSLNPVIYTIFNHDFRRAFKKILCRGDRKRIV
The assay is described as follows: cell-based or functional assay.
In the case of B1, the “max Ca2+ signal … agonist NE” value worked out at 10900 fluorescence units.

Turning to B2, the “max Ca2+ signal … agonist NE” value was 7580 fluorescence units.

Regarding B3, the “max Ca2+ signal … agonist NE” value is 3040 fluorescence units.

For a further assay, the target named is T6, human Y2 receptor (human, UniProt P49146 1-381).
T6 sequence (looked up): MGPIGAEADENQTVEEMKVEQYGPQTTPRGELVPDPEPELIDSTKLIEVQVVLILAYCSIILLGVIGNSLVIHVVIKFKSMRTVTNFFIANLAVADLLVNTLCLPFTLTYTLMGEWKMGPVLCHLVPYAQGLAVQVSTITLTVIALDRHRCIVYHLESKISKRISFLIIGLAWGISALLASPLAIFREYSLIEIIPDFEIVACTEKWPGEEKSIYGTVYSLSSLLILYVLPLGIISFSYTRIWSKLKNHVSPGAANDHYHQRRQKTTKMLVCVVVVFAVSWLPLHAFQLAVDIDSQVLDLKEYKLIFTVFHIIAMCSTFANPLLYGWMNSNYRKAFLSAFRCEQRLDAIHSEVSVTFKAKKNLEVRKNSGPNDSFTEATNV
The assay is described as follows: cell-based or functional assay.
Consider B1, for which the “max Ca2+ signal … agonist NPY” value was 10900 fluorescence units.

As to B2, the “max Ca2+ signal … agonist NPY” value was determined as 7710 fluorescence units.

As for B3, the “max Ca2+ signal … agonist NPY” value turned out to be 5390 fluorescence units.
